Legend:
Test in all cases: SPR
PI(4,5)P2 = conditions: parent: est. 240; read off a plot
PI3P = conditions: parent: est. 370; read off a plot
PI5P = conditions: parent: est. 460; read off a plot
[1] = biological target: histone H3 peptide trimethylated at lysine 4; conditions: parent: est. 490; read off a plot

Substance	response (PI(4,5)P2) [RU]	response (PI3P) [RU]	response (PI5P) [RU]	response [1] [RU]
GST-TAF3 PHD finger, wild type D890; W891	120	270	400	–
GST-TAF3 PHD finger, wild type K922; K923; K925; K926; R927; K928	–	–	–	570

Source: publication PMC4429956
